B3: mCATCH(+) peptide, Ac-QQKPKPKPKQQ-Am (peptide)
peptide: Ac-QQKPKPKPKQQ-NH2
notes: Proline residues replace the phenylalanine residues of CATCH(+); also called mutant of CATCH(+)

For data set [1] the following is noted: aqueous media; cited from earlier work.
Another data set has as its system cells. Briefly: Delivery of granules comprising three co-assembling peptides; FACS sorting and NanoLuciferase activity. As to conditions: for delivery into cells via granules of three co-assembling peptides: granules with CATCH(6+) and two distinct CATCH(6−) fusion peptides. It is filed as cell-based. The protocol:
Therein, the ability of cells to take up granules comprising three co-assembling peptides (e.g., a CATCH(6+) and two distinct CATCH(6−) fusion peptides comprising different fluorescent or colorimetric markers) was tested. […] Subsequent fluorescent-activated cell sorting (FACS) procedures were used to sort GFP-positive cells.

The nature of data set [2]: Protein incorporation into macroscopic hydrogels (GFP retention under excess 1×PBS). It is filed as physicochemical. The procedure:
Macroscopic Hydrogel Formation. A 12 mM stock solution of CATCH(−) was prepared by dissolving dry peptide in 1×PBS and adjusting the pH to ˜7.6 with ammonium bicarbonate (Fisher). A 12 mM stock solution of CATCH(+) was prepared by dissolving dry peptide in 1×PBS and adjusting the pH to ˜7.2 with hydrochloric acid (0.5 N Fisher). CATCH peptide stock solutions were combined at a 1:1 (v/v) ratio in a 0.2 mL glass vial (Thermo), and the vial was gently swirled for 2 min until the hydrogel formed. The hydrogel was stained with red food coloring to aid visualization. Hydrogel images were recorded using a digital still camera.
Protein Incorporation into Macroscopic Hydrogels. […] Immediately after hydrogel formation, fluorescence was visualized by placing the glass vials on a SafeImager 2.0 transilluminator (Invitrogen) and recording images with a digital still camera. […] At various time points, fluorescence in the buffer supernatant was visualized by placing the glass vials on a SafeImager 2.0 transilluminator (Invitrogen) and recording images with a digital still camera. At the endpoint, buffer supernatant was carefully removed by decanting and fluorescence was visualized by placing the glass vials on a SafeImager 2.0 transilluminator (Invitrogen) and recording images with a digital still camera.

A short description of data set [3]: Granule formation with molar excess of positive peptide: effect of concentration, ion content and pH. The settings on record: molar excess of CATCH(6+) relative to CATCH(6−)-GFP. It is filed as physicochemical. The procedure:
This example describes the effect on granule formation of using positive peptides in molar excess relative to negative peptides. Samples comprising molar excess of positive peptide (e.g., CATCH(6+)) relative to negative peptide (e.g., CATCH(6−)-GFP) were prepared and granule formation was measured after peptide co-assembly (see FIG. 61). […] Therein, the effect of sample ion content on granule formation was tested. Samples comprised 2 mM CATCH(6+) or CATCH(4+) and 30 μM CATCH(6−)-GFP.

The subject of the next data set is cells in vitro. As to the kind of experiment: Granule uptake compared to cell-penetrating peptide (L17E and Pep-1) uptake; CATCH(6+) titration; cell count. The format is cell-based.
Data set [4] has as its target T1, mCATCH(-) peptide, Ac-EQEPEPEPEQE-Am.
T1 construct: Proline residues replace the phenylalanine residues of CATCH(-); also called mutant of CATCH(-)
T1 peptide: Ac-EQEPEPEPEQE-NH2
As to the kind of experiment: ThT fluorimetry, equimolar mixture in 1x PBS. The procedure:
(§1) Thioflavin T (ThT) Assay. A ThT stock solution containing 0.8 mg/mL of thioflavin T (Acros) in 1× phosphate-buffered saline (PBS) (137 mM NaCl, 2.7 mM KCl, 10 mM Na₂HPO₄ and 1.8 mM KH₂PO₄, pH 7.4) was filtered through a 0.22 μm syringe filter (Millex), and further diluted 1:10 with 1×PBS to create a working solution. Peptide samples were mixed with the ThT working solution at a 1:10 (v/v) ratio, added to a black 96-well plate (Corning), and analyzed with a Molecular Devices SpectraMax M3 spectrophotometer (excitation 450, emission 482 nm). All samples were run in triplicate, with the mean and standard deviation of these samples reported.

Data set [5] deals with the molecule itself. As to the kind of experiment: TEM; circular dichroism also showed predominantly random coil when incubated alone. (In general: Circular dichroism is widely used to follow secondary structure.)
Data set [6] addresses B3. Briefly: ThT fluorimetry, equimolar mixture in 1x PBS. The protocol: as §1
The target in data set [7] is T1, mCATCH(-) peptide, Ac-EQEPEPEPEQE-Am. As to the kind of experiment: ThT fluorimetry, kinetic analysis.

No end group written: not given here.

For “Ac-QQKFQFQFEQQ-Am (Ac-QQKFQFQFEQQ-NH2) [Q11]”, in data set [1], the “concentration at which peptide self-assembles into β-sheet nanofibers” value was roughly 10 µM. For “CATCH(6−)-NanoLuciferase: CATCH(6−) fusion with NanoLuciferase (EQEFEFEFEQE; not fully specified (C-terminus); also: fusion with NanoLuciferase, not in chain)”, the “NanoLuciferase activity in sorted GFP-positive cells” value in the data set on cells (after FACS, granules with CATCH(6−)-GFP and CATCH(6−)-NanoLuciferase) is “high levels”. Also, the “delivery into cells via granules of three co-assembling peptides” value (“delivery into cells via granules” for short) in the data set with cells is “successfully delivered into cells”. Consider “CATCH(6−)-mRuby: CATCH(6−) fusion peptide with fluorescent marker mRuby (EQEFEFEFEQE; not fully specified (C-terminus); also: fusion with mRuby, not in chain)”, for which, in the data set with cells, the “delivery into cells via granules” value was “delivered into cells”.

Turning to “CATCH(−)GFP: recombinant fusion of CATCH(−) and superfolder green fluorescent protein (GFP)”, the “fluorescence of CATCH hydrogels after incubation under volumetric excess of 1×PBS” value in data set [2] (48 h, hydrogel from 12 mM CATCH(+) and CATCH(−)) is reported as “retained their fluorescence”. The “GFP in the buffer layer over hydrogels” value in data set [2] (up to 48 h under excess 1×PBS) is “no GFP was detected”. Besides, the “delivery into cells via granules” value in the data set with cells was “delivered into cells”. On to KQKFKFKFKQK [CATCH(6+)], for which, in [3], the “granule size by scanning electron microscopy at higher positive peptide concentrations” value is “larger granules”. The “effect of titration of peptide concentration on number of transduced cells” value in the data set with cells in vitro is on record as “enabled control on the number of transduced cells”.

B1: CATCH(+) peptide, Ac-QQKFKFKFKQQ-Am (peptide)
peptide: Ac-QQKFKFKFKQQ-NH2
notes: Synthetic cationic variant of Q11; also called CATCH(4+); CATCH (4+)
In the case of B1, the binding result in data set [4] and in [5] was “no binding” throughout.

B2: CATCH(-) peptide, Ac-EQEFEFEFEQE-Am (peptide)
peptide: Ac-EQEFEFEFEQE-NH2
notes: Synthetic anionic variant of Q11; also called CATCH(6-); CATCH (6-)
Consider B2, for which the binding result in data set [6] and in [5] was “no binding” in each case. As for B3, the binding result in data set [7] is listed as “no binding”.

The record behind these values is patent US20250250297A1, “CO-ASSEMBLED PEPTIDE GRANULES FOR INTRACELLULAR PROTEIN DELIVERY” (University of Florida Research Foundation, Incorporated, priority 2022, published 2025).
